Assay results taken from patent US20160304566A1.

Tests used:
human IgG-HRP (human) [1] = test: ELISA, coated protein, human IgG-HRP, n=12
human IgG-HRP (human) [2] = test: ELISA, SpA coated, human IgG-HRP, PBS in place of F(ab)2, n=5

Substance | OD450 nm, Mean value (human IgG-HRP (human) [1]) [OD] | OD450 nm, Ave (human IgG-HRP (human) [2]) [OD]
SpA5 (RRVV) (from UniProt P38507 37-327) | 0.062 | –
SpA5wt (from UniProt P38507 37-327) | 0.625 | –
SpA (252) (from UniProt P38507 37-508) | 0.635 | 0.641
